The values below come from paper PMC4278767.

In series [1] the test system is T1, Fis (Pseudomonas putida (strain PaW85?)), ORF:eb421da7.
T1 sequence: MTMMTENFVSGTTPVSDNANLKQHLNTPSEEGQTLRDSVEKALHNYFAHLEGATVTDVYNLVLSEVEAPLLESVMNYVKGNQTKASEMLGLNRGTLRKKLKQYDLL
Nature of the series: EMSA. The following applies: EMSA: 24 mM Tris/HCl pH 7.5, 50 mM KCl, 10 mM MgCl2, 1 mM CaCl2, 0.1 mM EDTA, 5% glycerol, 0.05 ug/ul BSA, 0.05 ug/ul salmon sperm DNA, 20 ul, 20 min room …. Background: In EMSA bound probe runs differently from free probe, usually more slowly.

Series [2] shares this test system. Briefly: DNase I footprinting. The following applies: EMSA: 24 mM Tris/HCl pH 7.5, 50 mM KCl, 10 mM MgCl2, 1 mM CaCl2, 0.1 mM EDTA, 5% glycerol, 0.05 ug/ul BSA, 0.05 ug/ul salmon sperm DNA, 20 ul, 20 min room ….

With “CGTAACAGAGCCCTTTCAGGGGTCTTACGCACAGCCTCGACCAGGCAGTCGACAAACGGGTGGTTAGGGAGATATAGCAGCCGGTGGGGAAGCAACCAGATGGCTTTCTGGGTTAATCCTTTGGTAGAAAAGCCTCAGCGAAAGATCTA (double strand) [lapF promoter fragment with Fis-F2 (wild type)]”, the binding entry in series [1] and in series [2] was “binds” throughout.
